Values quoted from earlier work in publication PMC2775921.
Read-outs that look alike come from different tables or passages of the source.

Columns and labels:
IL-2 (Homo sapiens) [1] = biological target: IL-2 (Homo sapiens) (UniProt P60568)
IL-2 (Homo sapiens) [2] = biological target: IL-2 (Homo sapiens) (UniProt P60568); remark: listed apart in the source

UniProt P60568, sequence (P60568 21-153): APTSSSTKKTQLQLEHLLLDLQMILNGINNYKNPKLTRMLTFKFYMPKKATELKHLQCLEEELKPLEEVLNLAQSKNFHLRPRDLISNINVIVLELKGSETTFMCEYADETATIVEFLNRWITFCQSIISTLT

Substance	Kd (IL-2 (Homo sapiens) [1]) [nM]	Kd (IL-2 (Homo sapiens) [2]) [nM]
soluble CD25 (from UniProt P01589)	30	
CD25 (membrane α-chain) (from UniProt P01589)		10
